How the values were obtained:
[1] = tested on: HeLa Kyoto; assay: solubility in G1/S (NP-40 vs SDS abundance) (log2 ratio); higher = more soluble; conditions: cell cycle stage: G1/S
[2] = tested on: HeLa Kyoto; assay: melting temperature (median over replicates), in situ; higher = more thermally stable
[3] = tested on: HeLa Kyoto; assay: solubility change mitosis vs G1/S (difference of NP-40 vs SDS log2 ratios) (log2 ratio difference); higher = more soluble in mitosis
[4] = tested on: HeLa Kyoto; assay: thermal stability score vs G1/S (z-score of summed log2 fold changes over temperatures); higher = more thermally stable than in G1/S
[5] = cell cycle stage: early G1 (4.5 h after nocodazole release)
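Throughout, for melting temperature (median over replicates), in situ: HeLa Kyoto cells synchronized by double thymidine or nocodazole block, proteins quantified by TMT10plex mass spectrometry, three independent biological replicates.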
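Throughout, for solubility change mitosis vs G1/S (difference of NP-40 vs SDS log2 ratios): synchronized HeLa Kyoto cells (double thymidine block for G1/S, nocodazole release for mitosis), protein amounts in NP-40 versus SDS lysates quantified by mass spectrometry, three biological replicates.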
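Throughout, for solubility in G1/S (NP-40 vs SDS abundance): HeLa Kyoto cells arrested at G1/S by double thymidine block, proteins quantified by TMT10plex mass spectrometry in mild NP-40 versus SDS extracts, three biological replicates.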
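Throughout, for thermal stability score vs G1/S (z-score of summed log2 fold changes over temperatures): synchronized HeLa Kyoto cells, proteins quantified by TMT10plex mass spectrometry, three biological replicates, mitosis taken 0.5 h after nocodazole release, G1/S directly after double thymidine block.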

Substance	solubility in G1/S (log2) [1]	melting temperature ([2]; cell cycle stage: G1/S)	melting temperature ([2]; cell cycle stage: mitosis)	solubility change mitosis (log2) [3]	thermal stability score [4, 5]	thermal stability score ([4]; cell cycle stage: mitosis)
MDFSKFLADDFDVKEWINAAFRAGSKEAASGKADGHAATLVMKLQLFIQEVNHAVEETSHQALQNMPKVLRDVEALKQEASFLKEQMILVKEDIKKFEQDTSQSMQVLVEIDQVKSRMQLAAESLQEADKWSTLSADIEETFKTQDIAVISAKLTGMQNSLMMLVDTPDYSEKCVHLEALKNRLEALASPQIVAAFTSQAVDQSKVFVKVFTEIDRMPQLLAYYYKCHKVQLLAAWQELCQSDLSLDRQLTGLYDALLGAWHTQIQWATQVFQKPHEVVMVLLIQTLGALMPSLPSCLSNGVERAGPEQELTRLLEFYDATAHFAKGLEMALLPHLHEHNLVKVTELVDAVYDPYKPYQLKYGDMEESNLLIQMSAVPLEHGEVIDCVQELSHSVNKLFGLASAAVDRCVRFTNGLGTCGLLSALKSLFAKYVSDFTSTLQSIRKKCKLDHIPPNSLFQEDWTAFQNSIRIIATCGELLRHCGDFEQQLANRILSTAGKYLSDSCSPRSLAGFQESILTDKKNSAKNPWQEYNYLQKDNPAEYASLMEILYTLKEKGSSNHNLLAAPRAALTRLNQQAHQLAFDSVFLRIKQQLLLISKMDSWNTAGIGETLTDELPAFSLTPLEYISNIGQYIMSLPLNLEPFVTQEDSALELALHAGKLPFPPEQGDELPELDNMADNWLGSIARATMQTYCDAILQIPELSPHSAKQLATDIDYLINVMDALGLQPSRTLQHIVTLLKTRPEDYRQVSKGLPRRLATTVATMRSVNY [COG7]	0.165	48.8 °C	48.7 °C	-0.0565	0.766	1.31
MESEDLSGRELTIDSIMNKVRDIKNKFKNEDLTDELSLNKISADTTDNSGTVNQIMMMANNPEDWLSLLLKLEKNSVPLSDALLNKLIGRYSQAIEALPPDKYGQNESFARIQVRFAELKAIQEPDDARDYFQMARANCKKFAFVHISFAQFELSQGNVKKSKQLLQKAVERGAVPLEMLEIALRNLNLQKKQLLSEEEKKNLSASTVLTAQESFSGSLGHLQNRNNSCDSRGQTTKARFLYGENMPPQDAEIGYRNSLRQTNKTKQSCPFGRVPVNLLNSPDCDVKTDDSVVPCFMKRQTSRSECRDLVVPGSKPSGNDSCELRNLKSVQNSHFKEPLVSDEKSSELIITDSITLKNKTESSLLAKLEETKEYQEPEVPESNQKQWQSKRKSECINQNPAASSNHWQIPELARKVNTEQKHTTFEQPVFSVSKQSPPISTSKWFDPKSICKTPSSNTLDDYMSCFRTPVVKNDFPPACQLSTPYGQPACFQQQQHQILATPLQNLQVLASSSANECISVKGRIYSILKQIGSGGSSKVFQVLNEKKQIYAIKYVNLEEADNQTLDSYRNEIAYLNKLQQHSDKIIRLYDYEITDQYIYMVMECGNIDLNSWLKKKKSIDPWERKSYWKNMLEAVHTIHQHGIVHSDLKPANFLIVDGMLKLIDFGIANQMQPDTTSVVKDSQVGTVNYMPPEAIKDMSSSRENGKSKSKISPKSDVWSLGCILYYMTYGKTPFQQIINQISKLHAIIDPNHEIEFPDIPEKDLQDVLKCCLKRDPKQRISIPELLAHPYVQIQTHPVNQMAKGTTEEMKYVLGQLVGLNSPNSILKAAKTLYEHYSGGESHNSSSSKTFEKKRGKK	0.176	46.8 °C	48.1 °C	0.0511	0.873	3.46
MRRAALRLCALGKGQLTPGRGLTQGPQNPKKQGIFHIHEVRDKLREIVGASTNWRDHVKAMEERKLLHSFLAKSQDGLPPRRMKDSYIEVLLPLGSEPELREKYLTVQNTVRFGRILEDLDSLGVLICYMHNKIHSAKMSPLSIVTALVDKIDMCKKSLSPEQDIKFSGHVSWVGKTSMEVKMQMFQLHGDEFCPVLDATFVMVARDSENKGPAFVNPLIPESPEEEELFRQGELNKGRRIAFSSTSLLKMAPSAEERTTIHEMFLSTLDPKTISFRSRVLPSNAVWMENSKLKSLEICHPQERNIFNRIFGGFLMRKAYELAWATACSFGGSRPFVVAVDDIMFQKPVEVGSLLFLSSQVCFTQNNYIQVRVHSEVASLQEKQHTTTNVFHFTFMSEKEVPLVFPKTYGESMLYLDGQRHFNSMSGPATLRKDYLVEP [ACOT9]	-0.111	52.9 °C	53.7 °C	-0.0152	-1.25	1.48
FLNA	-0.000309	50.2 °C	50.3 °C	-0.105	-0.0595	2.86
MCGIWALFGSDDCLSVQCLSAMKIAHRGPDAFRFENVNGYTNCCFGFHRLAVVDPLFGMQPIRVKKYPYLWLCYNGEIYNHKKMQQHFEFEYQTKVDGEIILHLYDKGGIEQTICMLDGVFAFVLLDTANKKVFLGRDTYGVRPLFKAMTEDGFLAVCSEAKGLVTLKHSATPFLKVEPFLPGHYEVLDLKPNGKVASVEMVKYHHCRDVPLHALYDNVEKLFPGFEIETVKNNLRILFNNAVKKRLMTDRRIGCLLSGGLDSSLVAATLLKQLKEAQVQYPLQTFAIGMEDSPDLLAARKVADHIGSEHYEVLFNSEEGIQALDEVIFSLETYDITTVRASVGMYLISKYIRKNTDSVVIFSGEGSDELTQGYIYFHKAPSPEKAEEESERLLRELYLFDVLRADRTTAAHGLELRVPFLDHRFSSYYLSLPPEMRIPKNGIEKHLLRETFEDSNLIPKEILWRPKEAFSDGITSVKNSWFKILQEYVEHQVDDAMMANAAQKFPFNTPKTKEGYYYRQVFERHYPGRADWLSHYWMPKWINATDPSARTLTHYKSAVKA [ASNS]	-0.142	52.8 °C	53.1 °C	-0.21	2.34	-0.215

Reference: the supplement of paper PMC5998384
